Test results as given in patent publication US20190367625A1, “AMHRII-BINDING COMPOUNDS FOR PREVENTING OR TREATING CANCERS” (GAMAMABS PHARMA, priority 2017, published 2019).
Entries after “also recorded” stand apart in the source; their conditions may differ.

What was measured:
[1] = Body weight and tolerability in LI1097 tumor-bearing mice; type: in vivo; conditions: for body weight loss observed in treated mice: mean; for tolerability / toxic events (in words): LI1097 tumor-bearing mice, antibody 20 and 50 mg/kg i.v., sorafenib 50 mg/kg p.o.
Procedure: When individual mouse has a body weight loss ≥20%, the mouse will be given dosing holiday(s) until its body weight recovers to the baseline.
All the procedures related to animal handling, care, and the treatment in this study were performed according to guidelines approved by the Institutional Animal Care and Use Committee (IACUC) of CrownBio following the guidance of the Association for Assessment and Accreditation of Laboratory Animal Care (AAALAC). At the time of routine monitoring, the animals were checked for any effects of tumor growth on normal behavior such as mobility, food and water consumption (by looking only), body weight gain/loss, eye/hair matting and any other abnormal effect. Death and observed clinical signs were recorded on the basis of the numbers of animals within each subset.
Under following conditions, the in-life experiment of individual animal or whole groups will be terminated, by humane euthanization, prior to death, or before reaching a comatose state. • In a continuing deteriorating condition with severe clinical signs of severe distress and/or pain, inaccessible to adequate food or water; • Significant body mass (emaciated) (>20%); • Individual mouse with tumor size exceeding 3000 mm^3 or MTV>2000 mm^3.

[2] = system: HuPrime® HCC xenograft model LI1097; test: Efficacy study in HuPrime HCC xenograft model LI1097 (tumor volume, TGI, T/C, T-C); type: in vivo, BALB/c nude mice; conditions: for Tumor Volume: mean ± SEM; for anti-tumor activity against HCC xenograft (in words): LI1097, compared with sorafenib
Source text: To evaluate preclinically the in vivo efficacy of GamaMabss' anti-AMHR2 monoclonal antibody, named GM102 in the treatment of Huprime® HCC xenograft model LI1097 in Balb/C nude mice. The model LI1097 was selected after a screening for AMHR2 transcription processed by CrownBio, using RNAseq (transcriptome sequencing). Further, AMHR2 membranous protein expression of this model was confirmed by Institut Curie, France, using IHC.
• Strain: BALB/c Nude • Age: 7-8 weeks (Treatment starting) • Gender: female • Total #: 32 mice plus spare
• HuPrime® Liver cancer model L11097 derived from a HCC patient was selected for this efficacy study. This model reached 1000 mm^3 in 20-25 days post inoculation.
• Product identification: GamaMabs's Ab (3C23K) • Manufacturer: GamaMabs Pharma • Lot number: R18H2-LP01 • Batch: 04GAM140513API • Quantity needed: 255 mg based on animal BW of 25 g with 50% spare • Package and storage condition: [30 ml/tube], 30 ml, [2-8° C.] • Concentration: 10.1 g/L • Product identification: Sorafenib • Manufacturer: Melonepharma • Lot number: D1111A • Quantity needed: 300 mg based on animal BW of 25 g with 50% spare • Package and storage condition: 400 mg, [RT]
Tumor fragments from stock mice inoculated with selected primary human cancer tissues were harvested and used for inoculation into BALB/c nude mice. Each mouse was inoculated subcutaneously at the right flank with primary human HCC model LI1097 fragment (R12P4, 2-4 mm in diameter) for tumor development on Jun. 9, 2015. The parent mouse number was #80150. #80151 and #80153. The mice were grouped when the average tumor size reached about 145 mm^3 on Jun. 24, 2015. Mice were allocated randomly into 4 experimental groups according to their tumor sizes. Each group consisted of 8 mice, 4 mice per cage. The day was denoted as day 0. The test articles were administered to the tumor-bearing mice from day 0 (Jun. 24, 2015) through day 27 (Jul. 21, 2015) according to pre-determined regimen shown in Section 1.1 Experimental Design.
Tumor size were measured twice weekly in two dimensions using a caliper, and the volume is expressed in mm^3 using the formula: TV=0.5 a×b^2, where a and b are the long and short diameters of the tumor, respectively. The tumor size is then used for calculations of TGI, T/C, and T-C values according to the description in the Table 2 in Abbreviations.
The study was ended after 28 days treatment and mice were sacrificed.
Summary statistics, including mean and the standard error of the mean (SEM), are provided for the tumor volume of each group at each time point. Statistical analysis of difference in tumor volume among the groups was evaluated using a one-way ANOVA followed by multiple comparisons using Games-Howell. All data were analyzed using SPSS 16.0. P<0.05 was considered to be statistically significant.

[3] = target: T1, AMHRII (form used for the Kd not stated) (human, UniProt Q16671 18-149, limits assumed)
T1 construct: Neither the construct nor the assay behind the Kd is described

[4] = system: Champions TumorGraft® model CTG-0401 (human colorectal cancer); test: Efficacy study in model CTG-0401 of human colorectal cancer; type: in vivo, Athymic Nude-Foxn1nu mice; conditions: 20 mg/kg IP BIWx4; comparator Irinotecan 100 mg/kg IP Q7Dx3; listed as GM102
Procedure: Stock mice (Athymic Nude-Foxn1^nu from Envigo) were implanted with tumor fragments from Champions TumorGraft® model CTG-0401. After the tumors reached 1000-1500 mm^3, they were harvested and the tumor fragments were implanted SC in the left flank of the female study mice. Each animal was implanted with a specific passage lot: passage 6 for CTG-0401. Tumor growth was monitored twice a week using digital calipers and the tumor volume (TV) was calculated using the formula (0.52×[length×width^2]). After the tumor volume reached 175±7 mm^3, mice were selected based on their tumor size and were randomly allocated into 4 groups of 12 animals per group (Day 0). After the initiation of dosing on Day 0, animals were weighed twice per week using a digital scale and TV was measured twice per week and also on the final day of study. The study was terminated when the mean tumor volume in the vehicle control group reached 1500 mm^3 or up to Day 60, whichever occurred first.

[5] = 50 mg/kg, QD × 4 weeks, p.o., day 13
[6] = 20 mg/kg, BIW × 4 weeks, i.v., day 13
[7] = 50 mg/kg, BIW × 4 weeks, i.v., day 13

T1 sequence (Q16671 18-149 limits assumed): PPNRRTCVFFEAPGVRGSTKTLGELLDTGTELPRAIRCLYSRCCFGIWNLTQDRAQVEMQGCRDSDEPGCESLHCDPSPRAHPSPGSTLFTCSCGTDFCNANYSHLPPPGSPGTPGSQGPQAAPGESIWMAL

## CNC(=O)c1cc(Oc2ccc(NC(=O)Nc3ccc(Cl)c(C(F)(F)F)c3)cc2)ccn1 [Sorafenib, reference compound]
[1]; 50 mg/kg, QD × 4 weeks, p.o.
  body weight change at study termination: −7.63%
  body weight loss observed in treated mice: 7%
[1]; 50 mg/kg, QD × 4 weeks, p.o., day 27 of treatment
  mean maximum body weight loss: 7.63%
[1]; 50 mg/kg, QD × 4 weeks, p.o., listed as sorafenib
  body weight loss observed in treated mice: up to 7%
[2]; 50 mg/kg, QD × 4 weeks, p.o.
  T-C (days) at 1000 mm^3: 8 days
[2]; 50 mg/kg, QD × 4 weeks, p.o., day 0
  Tumor Volume: 145.18 ± 16.97 mm^3
[2]; 50 mg/kg, QD × 4 weeks, p.o., day 2
  Tumor Volume: 321.35 ± 45.66 mm^3
[2]; 50 mg/kg, QD × 4 weeks, p.o., day 6
  Tumor Volume: 493.84 ± 65.13 mm^3
[2]; 50 mg/kg, QD × 4 weeks, p.o., day 9
  Tumor Volume: 695.20 ± 66.81 mm^3
[2]; [5]
  T/C (%): 35.1%
  TGI (%): 64.9%
  Tumor Volume: 891.50 ± 103.33 mm^3
[2]; 50 mg/kg, QD × 4 weeks, p.o., day 16
  Tumor Volume: 1135.40 ± 133.62 mm^3
[2]; 50 mg/kg, QD × 4 weeks, p.o., day 20
  Tumor Volume: 1478.84 ± 189.62 mm^3
[2]; 50 mg/kg, QD × 4 weeks, p.o., day 23
  Tumor Volume: 1627.4 ± 202.91 mm^3
[2]; 50 mg/kg, QD × 4 weeks, p.o., day 27
  Tumor Volume: 1829.66 ± 256.4 mm^3

B1: 3C23K anti-AMHRII monoclonal antibody (antibody, human IgG1, kappa, V domains shown)
VH: QVRLVQSGAEVKKPGASVKVSCKASGYTFTSYHIHWVRQAPGQRLEWMGWIYPGDDSTKYSQKFQGRVTITRDTSASTAYMELSSLRSEDTAVYYCTRGDRFAYWGQGTLVTVSS
VL: DIQMTQSPSTLSASVGDRVTITCRASSSVRYIAWYQQKPGKAPKLLTYPTSSLKSGVPSRFSGSGSGTEFTLTISSLQPDDFATYYCLQWSSYPWTFGGGTKVEIKR
notes: Humanized antibody; also called GM102; GamaMabs's Ab
[3]
  Kd: 0.0553 nM

B2: 3C23K: humanized anti-AMHRII monoclonal antibody; VH SEQ ID NO 19, VL SEQ ID NO 36 (antibody, V domains shown)
VH: B1 VH
VL: DIQMTQSPSTLSASVGDRVTITCRASSSVRYIAWYQQKPGKAPKLLTYPTSSLKSGVPSRFSGSGSGTEFTLTISSLQPDDFATYYCLQWSSYPWTFGGGTKVEIK
modifications: Synthetic 3C23K/3C23; Synthetic 3C23K
[1]; 20 mg/kg, BIW × 4 weeks, i.v.
  body weight change at study termination: 2.68%
[1]; 50 mg/kg, BIW × 4 weeks, i.v.
  body weight change at study termination: -0.38%
[1]
  tolerability / toxic events (in words): no detectable toxic event
[1]; listed as GM102
  tolerability / toxic events (in words): not accompanied by any toxic event
[1]; listed as GamaMabs's Ab
  tolerability / toxic events (in words): No animal death or significant body weight loss; also recorded: well tolerated
[2]; 20 mg/kg, BIW × 4 weeks, i.v.
  T-C (days) at 1000 mm^3: 3 days
[2]; 20 mg/kg, BIW × 4 weeks, i.v., day 0
  Tumor Volume: 145.15 ± 16.79 mm^3
[2]; 20 mg/kg, BIW × 4 weeks, i.v., day 2
  Tumor Volume: 358.57 ± 51.86 mm^3
[2]; 20 mg/kg, BIW × 4 weeks, i.v., day 6
  Tumor Volume: 665.09 ± 85.00 mm^3
[2]; 20 mg/kg, BIW × 4 weeks, i.v., day 9
  Tumor Volume: 952.12 ± 171.45 mm^3
[2]; [6]
  T/C (%): 48.7%
  Tumor Volume: 1179.90 ± 232.26 mm^3
[2]; 20 mg/kg, BIW × 4 weeks, i.v., day 13, listed as GamaMabs's Ab
  TGI (%): 51.3%
[2]; 20 mg/kg, BIW × 4 weeks, i.v., day 16
  Tumor Volume: 1479.51 ± 292.49 mm^3
[2]; 20 mg/kg, BIW × 4 weeks, i.v., day 20
  Tumor Volume: 1973.13 ± 372.07 mm^3
[2]; 20 mg/kg, BIW × 4 weeks, i.v., day 23
  Tumor Volume: 1814.59 ± 231.17 mm^3
[2]; 20 mg/kg, BIW × 4 weeks, i.v., day 27
  Tumor Volume: 2081.67 ± 213.28 mm^3
[2]; 50 mg/kg, BIW × 4 weeks, i.v.
  T-C (days) at 1000 mm^3: 5 days
[2]; 50 mg/kg, BIW × 4 weeks, i.v., day 0
  Tumor Volume: 145.24 ± 16.38 mm^3
[2]; 50 mg/kg, BIW × 4 weeks, i.v., day 2
  Tumor Volume: 297.78 ± 46.32 mm^3
[2]; 50 mg/kg, BIW × 4 weeks, i.v., day 6
  Tumor Volume: 532.71 ± 104.17 mm^3
[2]; 50 mg/kg, BIW × 4 weeks, i.v., day 9
  Tumor Volume: 751.81 ± 176.15 mm^3
[2]; [7]
  T/C (%): 45.7%
  Tumor Volume: 1117.12 ± 302.85 mm^3
[2]; 50 mg/kg, BIW × 4 weeks, i.v., day 13, listed as GamaMabs's Ab
  TGI (%): 54.3%
[2]; 50 mg/kg, BIW × 4 weeks, i.v., day 16
  Tumor Volume: 1476.74 ± 407.93 mm^3
[2]; 50 mg/kg, BIW × 4 weeks, i.v., day 20
  Tumor Volume: 1602.61 ± 481.85 mm^3
[2]; 50 mg/kg, BIW × 4 weeks, i.v., day 23
  Tumor Volume: 1148.22 ± 381.49 mm^3
[2]; 50 mg/kg, BIW × 4 weeks, i.v., day 27
  Tumor Volume: 1454.47 ± 479.27 mm^3
[2]
  anti-tumor activity against HCC xenograft (in words): of the same order of magnitude as sorafenib
[2]; listed as GamaMabs's Ab
  anti-tumor activity against HCC xenograft (in words): close to that induced by sorafenib
[4]
  in vivo anti-tumor effect against AMHRII-expressing human colorectal tumor (in words, FIG. 10): efficient in vivo anti-tumor effect; also recorded: indistinguishable from the anti-tumor effect of the mainly used anti-colon cancer molecule Irinotecan
